# Test system: Escherichia coli TOP10
# Test: shrunken log2 fold change of peptide-encoding DNA abundance (4.5 h post-induction vs induction); higher = less antimicrobial activity (less host growth inhibition)
# Details: time post-induction: 4.5 h; library: site-saturation at positions 5, 18, 19, 20
# 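Note: peptides expressed intracellularly from a pBAD plasmid library in pooled LB shake-flask culture, induced with 0.3% L-arabinose, DNA abundance read by NGS, three biological replicates, DESeq2 with apeglm shrinkage.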
row,Sequence,shrunken log2 fold change
1,RRIRFRPPRLPRPRPRPQYVPRP,-0.368
2,RRIRLRPPRLPRPRPRPAYIPRP,-0.098
3,RRIRRRPPRLPRPRPRPCNRPRP,-0.509
4,RRIRWRPPRLPRPRPRPDMGPRP,0.454
5,RRIRDRPPRLPRPRPRPEHQPRP,-0.012
6,RRIRQRPPRLPRPRPRPKHNPRP,-0.368
7,RRIRRRPPRLPRPRPRPAIEPRP,0.109
8,RRIRVRPPRLPRPRPRPGRKPRP,-0.0493
9,RRIRMRPPRLPRPRPRPDRKPRP,0.0503
10,RRIRTRPPRLPRPRPRPALVPRP,0.0324
11,RRIRDRPPRLPRPRPRPQFSPRP,0.0361
12,RRIRGRPPRLPRPRPRPDVHPRP,0.867
13,RRIRHRPPRLPRPRPRPVAQPRP,0.0207
14,RRIRCRPPRLPRPRPRPILWPRP,0.0346
15,RRIRLRPPRLPRPRPRPRACPRP,0.223
16,RRIRQRPPRLPRPRPRPNSMPRP,-0.25
17,RRIRMRPPRLPRPRPRPSWLPRP,0.0725
18,RRIRTRPPRLPRPRPRPKHCPRP,-0.0769
19,RRIRMRPPRLPRPRPRPFFEPRP,0.597
20,RRIRHRPPRLPRPRPRPKYLPRP,-0.0216
21,RRIRIRPPRLPRPRPRPQNCPRP,-0.0145
22,RRIRVRPPRLPRPRPRPGMWPRP,0.149
23,RRIRDRPPRLPRPRPRPESLPRP,1.01
24,RRIRWRPPRLPRPRPRPWTTPRP,-0.148
25,RRIRWRPPRLPRPRPRPTKAPRP,0.122

row,Sequence,shrunken log2 fold change
1,RRIRLRPPRLPRPRPRPAWTPRP,0.218
2,RRIRHRPPRLPRPRPRPFTGPRP,-0.171
3,RRIRNRPPRLPRPRPRPWWFPRP,-0.0934
4,RRIRYRPPRLPRPRPRPNGRPRP,-0.311
5,RRIRERPPRLPRPRPRPQDGPRP,-0.113
6,RRIRARPPRLPRPRPRPNILPRP,-0.00643
7,RRIRARPPRLPRPRPRPQICPRP,0.176
8,RRIRDRPPRLPRPRPRPCKSPRP,-0.321
9,RRIRERPPRLPRPRPRPKDQPRP,0.188
10,RRIRSRPPRLPRPRPRPMPFPRP,-0.0591
11,RRIRDRPPRLPRPRPRPLNRPRP,-0.0679
12,RRIRYRPPRLPRPRPRPELWPRP,0.13
13,RRIRMRPPRLPRPRPRPQYIPRP,-0.0206
14,RRIRGRPPRLPRPRPRPQCLPRP,0.405
15,RRIRYRPPRLPRPRPRPVHLPRP,-0.328
16,RRIRIRPPRLPRPRPRPSSEPRP,-0.299
17,RRIRERPPRLPRPRPRPWGEPRP,-0.279
18,RRIRVRPPRLPRPRPRPILMPRP,-0.231
19,RRIRYRPPRLPRPRPRPFAMPRP,-0.844
20,RRIRLRPPRLPRPRPRPAYYPRP,-0.253
21,RRIRRRPPRLPRPRPRPIGGPRP,0.205
22,RRIRMRPPRLPRPRPRPCSQPRP,-0.00549
23,RRIRRRPPRLPRPRPRPLTNPRP,-0.16
24,RRIRDRPPRLPRPRPRPINEPRP,-0.144
25,RRIRERPPRLPRPRPRPIILPRP,-0.136

row,Sequence,shrunken log2 fold change
1,RRIRDRPPRLPRPRPRPFDQPRP,-0.115
2,RRIRHRPPRLPRPRPRPRGAPRP,0.152
3,RRIRERPPRLPRPRPRPYCWPRP,-0.509
4,RRIRTRPPRLPRPRPRPFLDPRP,-0.553
5,RRIRDRPPRLPRPRPRPMIEPRP,0.0558
6,RRIRPRPPRLPRPRPRPEVPPRP,0.0363
7,RRIRNRPPRLPRPRPRPLAKPRP,0.249
8,RRIRERPPRLPRPRPRPGLVPRP,-0.061
9,RRIRDRPPRLPRPRPRPEKDPRP,0.194
10,RRIRPRPPRLPRPRPRPVDFPRP,0.0795
11,RRIRYRPPRLPRPRPRPNRIPRP,-0.815
12,RRIRCRPPRLPRPRPRPIAMPRP,-0.0964
13,RRIRTRPPRLPRPRPRPQPVPRP,-0.0826
14,RRIRVRPPRLPRPRPRPWIWPRP,0.00605
15,RRIRGRPPRLPRPRPRPISMPRP,-0.0173
16,RRIRGRPPRLPRPRPRPSAWPRP,1.94
17,RRIRFRPPRLPRPRPRPPKIPRP,0.145
18,RRIRGRPPRLPRPRPRPKFEPRP,0.411
19,RRIRERPPRLPRPRPRPRNFPRP,-0.456
20,RRIRVRPPRLPRPRPRPWVYPRP,-0.137
21,RRIRFRPPRLPRPRPRPLSQPRP,-0.271
22,RRIRWRPPRLPRPRPRPFRVPRP,-0.0169
23,RRIRNRPPRLPRPRPRPNLAPRP,-0.137
24,RRIRIRPPRLPRPRPRPRAWPRP,0.187
25,RRIRDRPPRLPRPRPRPWAKPRP,-0.0135

row,Sequence,shrunken log2 fold change
1,RRIRHRPPRLPRPRPRPSMAPRP,0.231
2,RRIRIRPPRLPRPRPRPCWQPRP,-0.211
3,RRIRPRPPRLPRPRPRPRAIPRP,0.503
4,RRIRKRPPRLPRPRPRPCLDPRP,-0.173
5,RRIRTRPPRLPRPRPRPIHRPRP,-0.00127
6,RRIRLRPPRLPRPRPRPRKFPRP,-0.0381
7,RRIRARPPRLPRPRPRPPRCPRP,0.931
8,RRIRLRPPRLPRPRPRPVFAPRP,0.223
9,RRIRSRPPRLPRPRPRPYNKPRP,-1.01
10,RRIRYRPPRLPRPRPRPCIFPRP,-0.559
11,RRIRVRPPRLPRPRPRPYDEPRP,-0.0163
12,RRIRSRPPRLPRPRPRPPRSPRP,0.483
13,RRIRFRPPRLPRPRPRPAVTPRP,-0.347
14,RRIRGRPPRLPRPRPRPEDSPRP,1.39
15,RRIRLRPPRLPRPRPRPSYGPRP,-0.585
16,RRIRHRPPRLPRPRPRPCNTPRP,-0.416
17,RRIRPRPPRLPRPRPRPTPMPRP,0.208
18,RRIRWRPPRLPRPRPRPWKLPRP,-0.00166
19,RRIRCRPPRLPRPRPRPRKFPRP,-0.00353
20,RRIRNRPPRLPRPRPRPTHLPRP,0.109
21,RRIRFRPPRLPRPRPRPHACPRP,-0.867
22,RRIRIRPPRLPRPRPRPSEPPRP,-0.192
23,RRIRDRPPRLPRPRPRPHRAPRP,-0.0299
24,RRIRPRPPRLPRPRPRPVGTPRP,0.1
25,RRIRCRPPRLPRPRPRPLIMPRP,-0.689

row,Sequence,shrunken log2 fold change
1,RRIRHRPPRLPRPRPRPAPGPRP,0.536
2,RRIRQRPPRLPRPRPRPLSPPRP,-0.109
3,RRIRKRPPRLPRPRPRPMLKPRP,0.954
4,RRIRQRPPRLPRPRPRPSTSPRP,-0.126
5,RRIRKRPPRLPRPRPRPDWPPRP,0.168
6,RRIRIRPPRLPRPRPRPPIYPRP,-0.592
7,RRIRARPPRLPRPRPRPLMTPRP,0.474
8,RRIRGRPPRLPRPRPRPYNLPRP,-0.487
9,RRIRMRPPRLPRPRPRPYTCPRP,8.02e-05
10,RRIRYRPPRLPRPRPRPLHPPRP,-0.0607
11,RRIRERPPRLPRPRPRPDPEPRP,-0.159
12,RRIRGRPPRLPRPRPRPWNIPRP,-0.409
13,RRIRNRPPRLPRPRPRPLQFPRP,0.0375
14,RRIRRRPPRLPRPRPRPPIPPRP,0.271
15,RRIRFRPPRLPRPRPRPDTSPRP,-0.985
16,RRIRIRPPRLPRPRPRPFHLPRP,-0.0356
17,RRIRMRPPRLPRPRPRPTSTPRP,0.16
18,RRIRIRPPRLPRPRPRPVPYPRP,-0.556
19,RRIRARPPRLPRPRPRPLGAPRP,0.726
20,RRIRLRPPRLPRPRPRPGFYPRP,-0.102
21,RRIRPRPPRLPRPRPRPCYAPRP,-0.414
22,RRIRDRPPRLPRPRPRPHAWPRP,0.1
23,RRIRERPPRLPRPRPRPSHCPRP,0.0392
24,RRIRYRPPRLPRPRPRPMFQPRP,-0.136
25,RRIRERPPRLPRPRPRPWCKPRP,0.00398

row,Sequence,shrunken log2 fold change
1,RRIRKRPPRLPRPRPRPPPYPRP,0.249
2,RRIRPRPPRLPRPRPRPYYRPRP,-0.178
3,RRIRMRPPRLPRPRPRPNLYPRP,-0.00588
4,RRIRDRPPRLPRPRPRPMKKPRP,0.0162
5,RRIRCRPPRLPRPRPRPSNMPRP,-0.604
6,RRIRTRPPRLPRPRPRPCPEPRP,-0.0641
7,RRIRERPPRLPRPRPRPMNGPRP,-0.0134
8,RRIRPRPPRLPRPRPRPGGMPRP,0.189
9,RRIRRRPPRLPRPRPRPNQRPRP,0.269
10,RRIRWRPPRLPRPRPRPENYPRP,-0.122
11,RRIRTRPPRLPRPRPRPFFGPRP,0.0239
12,RRIRPRPPRLPRPRPRPVTHPRP,-0.227
13,RRIRPRPPRLPRPRPRPKIDPRP,0.0162
14,RRIRCRPPRLPRPRPRPMQCPRP,0.0136
15,RRIRFRPPRLPRPRPRPIQVPRP,-0.228
16,RRIRTRPPRLPRPRPRPPENPRP,0.201
17,RRIRDRPPRLPRPRPRPNYGPRP,-0.0075
18,RRIRDRPPRLPRPRPRPKDAPRP,-0.018
19,RRIRQRPPRLPRPRPRPRFRPRP,0.0281
20,RRIRTRPPRLPRPRPRPSDCPRP,0.131
21,RRIRRRPPRLPRPRPRPASIPRP,-0.0206
22,RRIRKRPPRLPRPRPRPHSLPRP,0.0727
23,RRIRLRPPRLPRPRPRPIVVPRP,-0.0319
24,RRIRGRPPRLPRPRPRPKWCPRP,0.113
25,RRIRYRPPRLPRPRPRPWKRPRP,0.047
